# The supplement of paper PMC10567573
# B1: HDAC6 (parent)
# chain: YVHHQALLDVKNIAHQNKFGEDMP
# Variants of: B1
# Experiment: protein stability index of a GFP-peptide fusion (GPS, HEK-293T) (PSI 1-6); higher = more stable
# Conditions: c terminus: a fixed tail appended
# 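Also: lentivirally expressed fusions sorted by FACS into six bins by GFP to DsRed ratio, PSI derived from sequencing read proportions per bin multiplied by bin number.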
row,Variant,protein stability index
1,N17K,1.97
2,N17M,1.59
3,N17S,2.46
4,N17G,1.58
5,N17E,1.91
6,N17L,1.68
7,N17T,2.47
8,N17D,1.9
9,N17Y,1.57
10,N17F,1.38
11,N17P,2.12
12,N17V,1.75
13,N17Q,1.85
14,N17C,1.87
15,N17W,1.19
16,N17H,1.72
17,N17A,2.83
18,N17R,1.89
19,N17I,1.48
20,K18M,1.94
21,K18R,2.88
22,K18S,1.49
23,K18E,2.37
24,K18T,2.43

row,Variant,protein stability index
1,K18C,1.37
2,K18A,2.23
3,K18D,1.7
4,K18V,1.74
5,K18N,2.26
6,K18Q,1.95
7,K18F,1.9
8,K18I,2.15
9,K18W,1.9
10,K18Y,2.2
11,K18G,2.58
12,K18P,2.35
13,K18H,1.78
14,K18L,1.73
15,Q16P,2.3
16,Q16S,1.87
17,Q16K,1.49
18,Q16T,1.91
19,Q16F,1.59
20,Q16D,2
21,Q16R,1.8
22,Q16V,1.48
23,Q16M,2.28
24,Q16Y,2.31

row,Variant,protein stability index
1,Q16L,2.21
2,Q16G,1.58
3,Q16W,2
4,Q16N,2.15
5,Q16C,2.01
6,Q16I,2.16
7,Q16A,1.63
8,Q16E,2.12
9,Q16H,1.77
10,H15P,2.37
11,H15W,2.85
12,H15F,1.51
13,H15Y,1.43
14,H15C,1.7
15,H15L,1.91
16,H15T,1.59
17,H15E,2.53
18,H15V,2.08
19,H15I,1.77
20,H15R,2.16
21,H15S,1.75
22,H15N,1.63
23,H15K,2.35
24,H15Q,2.08

row,Variant,protein stability index
1,H15D,2.2
2,H15G,1.51
3,H15A,2.57
4,H15M,2.12
5,F19A,2.51
6,F19H,2.53
7,F19E,2.45
8,F19K,1.91
9,F19I,1.76
10,F19D,2.48
11,F19G,2.43
12,F19C,1.78
13,K11S,2.74
14,K11V,1.41
15,K11R,2.08
16,K11T,2.25
17,K11E,2.24
18,K11C,1.54
19,K11P,1.92
20,K11M,1.72
21,K11A,1.81
22,K11Q,1.4
23,K11D,2.18
24,K11F,2.13

row,Variant,protein stability index
1,K11Y,2.77
2,K11H,2.21
3,K11L,1.27
4,K11W,3.04
5,K11G,1.95
6,K11I,2.09
7,K11N,1.98
8,I13V,2.31
9,I13A,2.18
10,I13S,2.28
11,I13E,2.27
12,I13T,1.9
13,I13W,2.16
14,I13Y,1.95
15,I13L,1.77
16,I13M,2.47
17,I13Q,1.92
18,I13R,1.96
19,I13F,1.94
20,I13C,1.81
21,I13D,2.77
22,I13K,2
23,I13G,2.39
24,I13H,1.95

row,Variant,protein stability index
1,I13N,1.98
2,I13P,2.17
3,N12I,2.4
4,N12G,2.71
5,N12H,1.72
6,N12E,1.66
7,N12D,1.67
8,N12Y,3.4
9,N12F,2.65
10,N12P,2.12
11,N12W,2.64
12,N12R,2.36
13,N12L,1.93
14,N12V,1.54
15,N12C,1.42
16,N12Q,1.57
17,N12S,2.09
18,N12M,1.87
19,N12K,2.18
20,N12A,2
21,N12T,2.09
22,V10W,2.37
23,V10T,1.86
24,V10Q,2.43

row,Variant,protein stability index
1,V10Y,1.62
2,V10P,2.15
3,V10R,1.85
4,V10S,1.84
5,A14V,2.59
6,A14D,2
7,A14H,1.74
8,A14L,1.9
9,A14K,2.33
10,A14F,1.52
11,A14R,2.04
12,A14S,2.35
13,A14T,1.82
14,A14G,1.76
15,A14W,2.79
16,A14Q,2.21
17,A14I,2.12
18,A14E,2.3
19,A14M,1.99
20,A14P,2.42
21,A14Y,1.74
22,A14N,2.26
23,A14C,3.38
